{"source": "patent US20230051715A1", "about": "(MABWELL THERAPEUTICS, published 2023)", "binders": {"B1": {"name": "Anti-C1s antibody 2-7 (antibody, human IgG1, kappa, V domains shown)", "VH": "EVKLEESGGGLVPPGGSMKLSCVASGFTFSNYFMNWVRQSPEKGLEWVAEIRLKFTNYATHYAESVEGRFTISRDDSKSSVYLQMNNLRAEDTGIYYCTRDYGSRNGYFDYWGQGTTLTVSS", "VL": "DIVMTQAAPSVPVTPGESVSISCRSSKSLLHSNGNTFLYWFLQRPGQSPQLLIYRMSNLASGVPDRFSGSGSGTAFTLRVSRVEAEDVGIYYCMQHLEYPYTFGGGTKLEIKT", "notes": "the HC/LC entries may hold it too; also called clone 2-7"}, "B2": {"name": "Anti-C1s antibody 2-8 (antibody, V domains shown)", "VH": "EVQLQQSGAELVRPGALVKLSCKASGFNIKEYYMHWVKQRPEQGLEWIGWIDPENGDTIYDPKFQGKASITADTSSNTAYLQLSSLTSEDTAVYYCARSRLFFAYWGQGTLVTVSA", "VL": "DIVMTQSHKFMSTSVGDRVSFTCKASQDVRTAVDWYQQKPGQSPKLLIYSASYRYTGVPDRFTGTGSGTDFTFTISSVQAEDLAVYFCQQQYTTPYTFGGGTKLEIKT", "notes": "the HC/LC entries may hold it too; also called clone 2-8"}, "B3": {"name": "Anti-C1s antibody hz2-7(H1L2) (antibody, V domains shown)", "VH": "EVQLLESGGGLVQPGGSLRLSCAASGFTFSNYFMNWVRQAPGKGLEWVSEIRLKFTNYATHYADSVKGRFTISRDDSKSTLYLQMNSLRAEDTAVYYCTRDYGSRNGYFDYWGQGTLVTVSS", "VL": "DIVMTQTPLSLPVTPGEPASISCRSSKSLLHSNGNTFLYWFLQKPGQSPQLLIYRMSNLASGVPDRFSGSGSGTDFTLKISRVEAEDVGVYYCMQHLEYPYTFGGGTKLEIKR", "notes": "Humanized, human IgG1 / kappa; also called hz2-7(1L2)"}, "B4": {"name": "Anti-C1s antibody hz2-8 (H1L2 G80A) (antibody, V domains shown)", "VH": "QVQLVQSGAEVKKPGASVKVSCKASGFNIKEYYMHWVRQAPEQGLEWMGWIDPENADTIYAQKFQGRVTITADTSTNTAYMELSSLRSEDTAVYYCARSRLFFAYWGQGTLVTVSS", "VL": "DIQMTQSPKSLSASVGDRVTITCRASQDVRTALDWYQQKPGQSPKLLIYSASYRYSGVPSRFSGSGSGTDFTLTISSLQPEDFATYYCQQQYTTPYTFGQGTKLEIKR", "notes": "Humanized variant with G80A in HC CDR2 (already in the entry), human IgG1 / kappa"}, "B5": {"name": "Anti-C1s antibody hz2-8 (H1L2 G80A/T82A) (antibody, V domains shown)", "VH": "B4 VH with T58A", "VL": "B4 VL", "notes": "Humanized variant with G80A and T82A in HC CDR2 (already in the entry), human IgG1 / kappa"}}, "key": {"[1]": {"biological_target": "T1, full-length human C1s (produced in house) (human, UniProt P09871 16-688)", "T1 construct": "Called full-length; Partly auto-cleaved at R422-I423 on blots; also called HuC1s; Hu C1s", "T1 sequence": "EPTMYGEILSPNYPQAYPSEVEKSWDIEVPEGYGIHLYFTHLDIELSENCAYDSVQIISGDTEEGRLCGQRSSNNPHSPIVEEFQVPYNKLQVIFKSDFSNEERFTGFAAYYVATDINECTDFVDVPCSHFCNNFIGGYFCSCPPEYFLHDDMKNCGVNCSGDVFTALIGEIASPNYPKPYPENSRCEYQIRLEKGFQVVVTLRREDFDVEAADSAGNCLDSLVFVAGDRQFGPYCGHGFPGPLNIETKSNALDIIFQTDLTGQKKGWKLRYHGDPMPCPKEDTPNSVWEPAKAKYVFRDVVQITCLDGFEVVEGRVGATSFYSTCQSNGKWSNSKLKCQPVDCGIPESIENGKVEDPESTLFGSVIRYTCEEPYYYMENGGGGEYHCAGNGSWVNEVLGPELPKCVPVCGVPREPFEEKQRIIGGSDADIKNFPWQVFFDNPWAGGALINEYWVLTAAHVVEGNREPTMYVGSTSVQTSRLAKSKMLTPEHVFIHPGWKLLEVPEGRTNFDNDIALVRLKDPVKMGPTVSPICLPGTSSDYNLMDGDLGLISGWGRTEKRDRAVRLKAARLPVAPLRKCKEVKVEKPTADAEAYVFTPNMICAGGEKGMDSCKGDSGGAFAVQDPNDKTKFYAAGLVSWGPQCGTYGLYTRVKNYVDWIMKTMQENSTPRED", "test": "ELISA, plate coated with 200 ng/well HuC1s, OD450nm", "procedure": "The next morning, plates were blocked with SuperBlock T20 blocking buffer (Thermo Scientific 37536) for 1 h with gentle shaking. Then, various concentrations of anti-C1s antibodies diluted in SuperBlock T20 blocking buffer were added to the plates and incubated for 1 h with gentle shaking. Mouse IgG (Sigma-Aldrich I5381) and Human IgG1 (BioXCell BP0297) were used as negative controls. The plates were washed before incubating with HRP conjugated secondary antibodies diluted in SuperBlock T20 blocking buffer (goat anti-mouse IgG (H+L) cross-adsorbed secondary antibody HRP (Invitrogen G-21040) or goat anti-human IgG antibody, HRP conjugate (Millipore AP309P)) for 1 h with gentle shaking. At last, the plates were washed and color developed with ELISA liquid substrate (Sigma-Aldrich), followed by stopping the reaction with addition of the same volume of […] 1M H₂SO₄. Bound antibody was measured by absorbance at OD₄₅₀ₙₘ."}, "[2]": {"biological_target": "T2, human C1s mutant M20 (A320S) (human, UniProt P09871 16-688)", "T2 construct": "The entry is the mutant itself", "T2 sequence": "T1 sequence with A319S", "test": "ELISA, plate coated with human C1s mutant M20: A320S, OD450nm", "procedure": "ELISA was carried out by first coating 96-well plates with 200 ng/well of full-length or truncated C1s proteins overnight. The next morning, plates were blocked with SuperBlock T20 blocking buffer (Thermo Scientific 37536) for 1 h with gentle shaking. Then, various concentrations of anti-C1s antibodies diluted in SuperBlock T20 blocking buffer were added to the plates and incubated for 1 h with gentle shaking. Mouse IgG (Sigma-Aldrich 15381) and human IgG1 (BioXCell BP0297) were used as negative controls. The plates were washed before incubating with HRP conjugated secondary antibodies diluted in SuperBlock T20 blocking buffer (goat anti-mouse IgG (H+L) cross-adsorbed secondary antibody HRP (Invitrogen G-21040) or goat anti-human IgG antibody, HRP conjugate (Millipore AP309P)) for 1 h with gentle shaking. At last, the plates were washed and color developed with ELISA liquid HRP substrate (Sigma-Aldrich), followed by stopping the reaction with addition of 1M H₂SO₄ in the same volume as the ELISA liquid substrate. Bound antibody was measured by absorbance at OD₄₅₀ₙₘ.\nBinding of anti-C1s antibodies to mutants M1-M20 of human C1s was measured by ELISA as described in Example 4, and results are shown in FIGS. 6B-6U. All anti-C1s humanized variants including hz2-7(H1L2), hz2-8(H1L2 G80A) and hz2-8(H1L2 G80A/T82A) maintained strong binding properties to the majority (16 out of 20) of C1s mutants including M1 (FIG. 6B), M2 (FIG. 6C), M3 (FIG. 6D). M4 (FIG. 6E), M7 (FIG. 6H), M8 (FIG. 6I), M10 (FIG. 6K), M11 (FIG. 6L), M12 (FIG. 6M), M13 (FIG. 6N), M15 (FIG. 6P), M16 (FIG. 6Q), M17 (FIG. 6R), M18 (FIG. 6S), M19 (FIG. 6T) and M20 (FIG. 6U)."}}, "note": "Numbering of substitutions follows the chain as printed. Numbers in names are those of the source.", "data": [{"binder": "B1", "values": [{"measurement": "EC50", "setting": "[1]", "value": 6, "unit": "ng/mL"}]}, {"binder": "B2", "values": [{"measurement": "EC50", "setting": "[1]", "value": 5, "unit": "ng/mL"}]}, {"binder": "B3", "values": [{"measurement": "EC50", "setting": "[2]", "value": 4, "unit": "ng/mL"}, {"measurement": "EC50", "setting": "[1]", "value": 6, "unit": "ng/mL"}]}, {"binder": "B4", "values": [{"measurement": "EC50", "setting": "[2]", "value": 3, "unit": "ng/mL"}]}, {"binder": "B5", "values": [{"measurement": "EC50", "setting": "[2]", "value": 5, "unit": "ng/mL"}, {"measurement": "EC50", "setting": "[1]", "value": 4, "unit": "ng/mL"}]}]}
